B1: Homeobox protein SIX3, residues 212 to 262; numbered along this chain, O95343 (parent)
chain: CFKERTRSLLREWYLQDPYPNPSKKRELAQATGLTPTQVGNWFKNRRQRDR

± gives the uncertainty stated by the source.

The variants in this data set derive from B1. Briefly: abundance fitness (aPCA) (normalised: wild type 0, dead -1); higher = more abundant; growth selection in yeast, the domain comes from the species named. As to conditions: Homo sapiens.
Take CFKERTRSLLREWYLQDPYPNPSKKRELQQATGLTPTQVGNWFKNRRQRDR [A29Q]: the abundance fitness was -0.897 ± 0.37.

Regarding CFKERTRSLLREWYLQDPYPNPSKKRELGQATGLTPTQVGNWFKNRRQRDR [A29G], the abundance fitness is -0.468 ± 0.065.

For the variant CFKERTRSLLREWYLQDPYPNPSKKRELMQATGLTPTQVGNWFKNRRQRDR [A29M], the abundance fitness was -1.03 ± 0.19. With CFKERTRSLLREWYLQDPYPNPSKKRELKQATGLTPTQVGNWFKNRRQRDR [A29K], the abundance fitness was -0.856 ± 0.24. Turning to CFKERTRSLLREWYLQDPYPNPSKKRELRQATGLTPTQVGNWFKNRRQRDR [A29R], the abundance fitness was -1.11 ± 0.19.

In the case of CFKERTRSLLREWYLQDPYPNPSKKRELPQATGLTPTQVGNWFKNRRQRDR [A29P], the abundance fitness was -0.911 ± 0.25. The same measure for CFKERTRSLLREWYLQDPYPNPSKKRELWQATGLTPTQVGNWFKNRRQRDR [A29W]: -0.704 ± 0.16; for CFKERTRSLLREWYLQDPYPNPSKKRELDQATGLTPTQVGNWFKNRRQRDR [A29D]: -0.93 ± 0.41. In the case of CFKERTRSLLREWYLQDPYPNPSKKRELLQATGLTPTQVGNWFKNRRQRDR [A29L], the abundance fitness was -0.911 ± 0.18. For CFKERTRSLLREWYLQDPYPNPSKKRELEQATGLTPTQVGNWFKNRRQRDR [A29E], the abundance fitness is -0.888 ± 0.16. The same measure for CFKERTRSLLREWYLQDPYPNPSKKRVLAQATGLTPTQVGNWFKNRRQRDR [E27V]: -0.593 ± 0.095; for CFKERTRSLLREWYLQDPYPNPSKKRWLAQATGLTPTQVGNWFKNRRQRDR [E27W]: -0.678 ± 0.083. The same measure for CFKERTRSLLREWYLQDPYPNPSKKRTLAQATGLTPTQVGNWFKNRRQRDR [E27T]: -0.668 ± 0.2; for CFKERTRSLLREWYLQDPYPNPSKKRSLAQATGLTPTQVGNWFKNRRQRDR [E27S]: -0.322 ± 0.079. The same measure for CFKERTRSLLREWYLQDPYPNPSKKRRLAQATGLTPTQVGNWFKNRRQRDR [E27R]: -0.573 ± 0.078; for CFKERTRSLLREWYLQDPYPNPSKKRELAQAPGLTPTQVGNWFKNRRQRDR [T32P]: -0.802 ± 0.2; for CFKERTRSLLREWYLQDPYPNPSKKRELAQAQGLTPTQVGNWFKNRRQRDR [T32Q]: -1.23 ± 0.39. Regarding CFKERTRSLLREWYLQDPYPNPSKKRELAQAVGLTPTQVGNWFKNRRQRDR [T32V], the abundance fitness was -0.257 ± 0.072.

Turning to CFKERTRSLLREWYLQDPYPNPSKKRELAQALGLTPTQVGNWFKNRRQRDR [T32L], the abundance fitness is -0.409 ± 0.072. For CFKERTRSLLREWYLQDPYPNPSKKRELAQAWGLTPTQVGNWFKNRRQRDR [T32W] the value was -0.821 ± 0.11; for CFKERTRSLLREWYLQDPYPNPSKKRELAQADGLTPTQVGNWFKNRRQRDR [T32D], -0.96 ± 0.12. On to CFKERTRSLLREWYLQDPYPNPSKKRELAQARGLTPTQVGNWFKNRRQRDR [T32R], for which the abundance fitness is -0.87 ± 0.1. Consider CFKERTRSLLREWYLQDPYPNPSKKRELAQAAGLTPTQVGNWFKNRRQRDR [T32A], for which the abundance fitness is -0.399 ± 0.079. The same measure for CFKERTRSLLREWYLQDPYPNPSKKRELAQANGLTPTQVGNWFKNRRQRDR [T32N]: -0.637 ± 0.2; for CFKERTRSLLREWYLQDPYPNPSKKRELAQASGLTPTQVGNWFKNRRQRDR [T32S]: -0.43 ± 0.059; for CFKERTRSLLREWYLQDPYPNPSKKRELAQAEGLTPTQVGNWFKNRRQRDR [T32E]: -0.908 ± 0.061. On to CFKERTRSLLREWYLQDPYPNPSKKRELAQAMGLTPTQVGNWFKNRRQRDR [T32M], for which the abundance fitness was -0.59 ± 0.11. Take CFKERTRSLLREWYLQDPYPNPSKKRELAQAYGLTPTQVGNWFKNRRQRDR [T32Y]: the abundance fitness was -1 ± 0.19. Regarding CFKERTRSLLREWYLQDPYPNPSKKRELAQAGGLTPTQVGNWFKNRRQRDR [T32G], the abundance fitness is -0.903 ± 0.11. As to CFKERTRSLLREWYLQDPYPNPSKKRELAQAFGLTPTQVGNWFKNRRQRDR [T32F], the abundance fitness was -0.922 ± 0.26. For CFKERTRSLLREWYLQDPYPNPSKKRELAQAHGLTPTQVGNWFKNRRQRDR [T32H] the value was 0.036 ± 0.29. Consider CFKERTRSLLREWYLQDPYPNPSKKRELAQAIGLTPTQVGNWFKNRRQRDR [T32I], for which the abundance fitness was -0.591 ± 0.14.

For the variant CFKERTRSLLREWYLQDPYPNPSKKRELAQACGLTPTQVGNWFKNRRQRDR [T32C], the abundance fitness is -0.026 ± 0.055. For CFKERTRSLLREWYLQDPYPNPSKKRELAQAKGLTPTQVGNWFKNRRQRDR [T32K], the abundance fitness was -1.02 ± 0.18. Turning to CFKERTRSLLREWYLQDPYPNPSKKREDAQATGLTPTQVGNWFKNRRQRDR [L28D], the abundance fitness is -0.805 ± 0.22. For CFKERTRSLLREWYLQDPYPNPSKKREEAQATGLTPTQVGNWFKNRRQRDR [L28E] the value was -1.04 ± 0.28; for CFKERTRSLLREWYLQDPYPNPSKKRERAQATGLTPTQVGNWFKNRRQRDR [L28R], -0.895 ± 0.091. The same measure for CFKERTRSLLREWYLQDPYPNPSKKREFAQATGLTPTQVGNWFKNRRQRDR [L28F]: -0.07 ± 0.067; for CFKERTRSLLREWYLQDPYPNPSKKREYAQATGLTPTQVGNWFKNRRQRDR [L28Y]: 0.069 ± 0.095. Consider CFKERTRSLLREWYLQDPYPNPSKKREIAQATGLTPTQVGNWFKNRRQRDR [L28I], for which the abundance fitness is -0.162 ± 0.14. For CFKERTRSLLREWYLQDPYPNPSKKRECAQATGLTPTQVGNWFKNRRQRDR [L28C] the value was -0.59 ± 0.045; for CFKERTRSLLREWYLQDPYPNPSKKREAAQATGLTPTQVGNWFKNRRQRDR [L28A], -1.05 ± 0.27; for CFKERTRSLLREWYLQDPYPNPSKKREHAQATGLTPTQVGNWFKNRRQRDR [L28H], -0.778 ± 0.26. With CFKERTRSLLREWYLQDPYPNPSKKREKAQATGLTPTQVGNWFKNRRQRDR [L28K], the abundance fitness is -0.668 ± 0.095.

CFKERTRSLLREWYLQDPYPNPSKKREVAQATGLTPTQVGNWFKNRRQRDR [L28V]: the abundance fitness was -0.147 ± 0.079. As for CFKERTRSLLREWYLQDPYPNPSKKREWAQATGLTPTQVGNWFKNRRQRDR [L28W], the abundance fitness was -0.572 ± 0.056. Turning to CFKERTRSLLREWYLQDPYPNPSKKRESAQATGLTPTQVGNWFKNRRQRDR [L28S], the abundance fitness is -0.833 ± 0.11. The same measure for CFKERTRSLLREWYLQDPYPNPSKKRETAQATGLTPTQVGNWFKNRRQRDR [L28T]: -0.876 ± 0.24. On to CFKERTRSLLREWYLQDPYPNPSKKREQAQATGLTPTQVGNWFKNRRQRDR [L28Q], for which the abundance fitness is -0.872 ± 0.11. For the variant CFKERTRSLLREWYLQDPYPNPSKKRENAQATGLTPTQVGNWFKNRRQRDR [L28N], the abundance fitness was -0.99 ± 0.16.

For CFKERTRSLLREWYLQDPYPNPSKKREMAQATGLTPTQVGNWFKNRRQRDR [L28M], the abundance fitness amounted to 0.029 ± 0.054.
